# Data reported in patent publication US20120107324A1 (published 2012).
# Residue numbers refer to the chain shown, from its start.
# B1: 3F12.4A1 (antibody, IgG2, V domains shown)
# VH: QVQLVESGGGVVQPGRSLRLSCAASGFTFSSYGMHWVRQAPGKGLEWVAVIWYDGTNKYYADSVKGRFTISRDNSKNTLYLQMNSLTAEDTAVYYCARDMAARRGDYYYYYGMDVWGPGTTVTVSS
# VL: DIVMTQSPLSLPVTPGEPASISCRSSQSLLNGIGYNFLDWYLQKPGQSPQLLIYLGSNRASGVPDRFSGSGSGTDFTLTISRVEAEDVGVYYCMHALQTPFTFGPGTKVDIK
# notes: Isotype IgG2/k
# B2: 7B1.3A1 (antibody, IgG4, V domains shown)
# VH: B1 VH with S30R, I51L, T56S, Y59N, T87R, V93M, M100G, Y111H, P118Q
# VL: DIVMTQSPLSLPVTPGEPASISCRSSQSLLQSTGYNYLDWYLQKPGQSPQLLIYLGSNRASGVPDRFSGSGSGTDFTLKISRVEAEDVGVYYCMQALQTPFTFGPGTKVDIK
# notes: also called MAb 7B1.3A1
# B3: 2G2.2B5 (antibody, IgG4, V domains shown)
# VH: B1 VH with T56S, T87R, M100G, P118Q
# VL: B1 VL with D1E, S26G, N31Q, G32S, I33T, Y35S, F37Y, D39A, T79K, H95Q
# notes: Isotype IgG4/k
# B4: 1F2.2B7 (antibody, IgG4, V domains shown)
# VH: B1 VH with S30R, T56S, T87R, V93M, M100G, Y111H, P118Q
# VL: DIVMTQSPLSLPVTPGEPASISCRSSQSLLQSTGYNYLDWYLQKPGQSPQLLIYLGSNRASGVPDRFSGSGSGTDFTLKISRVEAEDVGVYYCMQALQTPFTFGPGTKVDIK
# notes: also called mAb 1F2.2B7
# B5: IIA1 (antibody, V domains shown)
# VH: QVQLKESGPGLVAPSQSLSITCTISGFSLTDYGVHWVRQPPGKGLEWLVVIWSDGSSTYNSALKSRMTIRKDNSKSQVFLIMNSLQTDDSAMYYCARHGTYYGMTTTGDALDYWGQGTSVTVSS
# VL: QIVLTQSPAIMSASLGERVTMTCTASSSVSSNYLHWYQQKPGSAPNLWIYSTSNLASGVPARFSGSGSGTSYSLTISSMEAEDAATYYCHQYLRSPPTFGGGTKLEIK
# B6: 4G3.3D11 (antibody, IgG4, V domains shown)
# VH: B1 VH with T28I, T87R, M100G, P118Q
# VL: B1 VL with N31H, I33T, N36S, F37S, T79K, Y92F, H95Q
# notes: Isotype IgG4/k
# B7: 2H12 (antibody, IgG4, V domains shown)
# VH: B1 VH with N77T, T87R, M100G, P118Q
# VL: B1 VL with N31R, I33H, N36S, F37Y, T79K, H95Q
# notes: Identified as an IgG4/k antibody; also called MAb 2H12; 2H12 IgG4
# B8: 2H12 IgG2 WT (antibody, V domains shown)
# VH: B1 VH with T87R, M100G, P118Q
# VL: B1 VL with N31R, I33H, N36S, F37Y, T79K, H95Q
# B9: 2H12 Variant 1 (IgG2) (antibody, V domains shown)
# VH: B1 VH with T87R, M100G, P118Q
# VL: B1 VL with N31R, I33H, N36S, F37Y, T79K, H95Q
# Biological target: T1, α4β1 integrin (UniProt P13612 34-1032; P05556 21-798)
# Assay: cell-based or functional assay
# T1 sequence (P13612 34-1032, chain 1 of 2): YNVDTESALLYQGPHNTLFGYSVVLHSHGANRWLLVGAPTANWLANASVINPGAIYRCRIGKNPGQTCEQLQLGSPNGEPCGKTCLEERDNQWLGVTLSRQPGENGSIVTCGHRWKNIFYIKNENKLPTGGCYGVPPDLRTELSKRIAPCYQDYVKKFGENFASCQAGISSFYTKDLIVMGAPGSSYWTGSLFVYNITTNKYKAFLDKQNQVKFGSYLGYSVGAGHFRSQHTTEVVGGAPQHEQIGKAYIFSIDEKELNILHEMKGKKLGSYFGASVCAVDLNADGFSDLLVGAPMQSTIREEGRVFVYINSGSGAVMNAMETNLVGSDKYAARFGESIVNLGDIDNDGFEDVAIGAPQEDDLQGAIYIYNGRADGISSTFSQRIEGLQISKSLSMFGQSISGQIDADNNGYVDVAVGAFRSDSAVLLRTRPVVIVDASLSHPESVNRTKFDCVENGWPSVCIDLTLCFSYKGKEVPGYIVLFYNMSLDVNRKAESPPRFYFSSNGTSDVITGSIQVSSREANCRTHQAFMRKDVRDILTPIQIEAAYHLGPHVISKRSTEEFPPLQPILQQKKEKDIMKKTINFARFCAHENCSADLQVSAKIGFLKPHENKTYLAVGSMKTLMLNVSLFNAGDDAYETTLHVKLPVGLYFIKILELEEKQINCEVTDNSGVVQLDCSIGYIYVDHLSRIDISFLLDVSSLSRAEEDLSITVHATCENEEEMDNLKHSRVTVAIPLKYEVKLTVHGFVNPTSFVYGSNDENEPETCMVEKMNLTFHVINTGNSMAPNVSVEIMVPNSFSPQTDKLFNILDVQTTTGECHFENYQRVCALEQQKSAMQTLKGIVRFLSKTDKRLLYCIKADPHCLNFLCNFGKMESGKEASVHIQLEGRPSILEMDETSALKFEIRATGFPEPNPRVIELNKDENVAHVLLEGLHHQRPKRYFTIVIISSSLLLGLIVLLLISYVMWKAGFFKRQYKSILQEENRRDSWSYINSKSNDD
# T1 sequence (P05556 21-798, chain 2 of 2): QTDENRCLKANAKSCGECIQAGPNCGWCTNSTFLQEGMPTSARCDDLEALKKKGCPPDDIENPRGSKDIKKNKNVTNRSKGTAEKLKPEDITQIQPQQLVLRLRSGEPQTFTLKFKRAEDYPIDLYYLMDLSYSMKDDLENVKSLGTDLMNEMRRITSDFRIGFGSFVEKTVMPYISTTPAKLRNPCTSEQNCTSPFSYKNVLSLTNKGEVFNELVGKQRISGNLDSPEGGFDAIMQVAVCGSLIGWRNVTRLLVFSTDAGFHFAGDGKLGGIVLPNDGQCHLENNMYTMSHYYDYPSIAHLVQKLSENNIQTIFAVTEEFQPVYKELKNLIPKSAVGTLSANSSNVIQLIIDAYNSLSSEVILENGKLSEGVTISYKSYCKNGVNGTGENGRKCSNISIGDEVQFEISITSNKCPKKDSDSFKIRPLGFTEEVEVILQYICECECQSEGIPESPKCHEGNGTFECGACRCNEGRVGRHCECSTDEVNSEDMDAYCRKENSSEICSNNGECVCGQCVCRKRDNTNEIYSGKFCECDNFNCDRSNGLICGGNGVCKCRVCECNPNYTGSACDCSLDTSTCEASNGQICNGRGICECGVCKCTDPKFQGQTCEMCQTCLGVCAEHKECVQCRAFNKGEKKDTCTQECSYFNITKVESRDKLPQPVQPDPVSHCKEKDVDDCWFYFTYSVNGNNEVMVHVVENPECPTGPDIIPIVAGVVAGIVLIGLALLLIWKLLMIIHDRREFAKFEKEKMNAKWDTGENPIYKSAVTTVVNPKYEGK
row,Binder,Average % inhibition at 5 ug/ml (J6 cell adhesion to GST-CS-1) [%]
1,B1,-2
2,B2,-7
3,B3,-11

# Biological target: T1, α4β1 integrin
# Assay: cell-based or functional assay
# Remark: another data set of the same source
Binder,"% Inhibition of adhesion, CS1 n = 1 (J6.77 Jurkat cells on GST-CS-1) [%]","% Inhibition of adhesion, CS1 n = 2 (J6.77 Jurkat cells on GST-CS-1) [%]"
B4,29,22
B2,33,12
B3,28,-5

# Biological target: T2, human α5β1 integrin (human, UniProt P08648 42-1049; P05556 21-798)
# Assay: cell-based or functional assay
# T2 sequence (P08648 42-1049, chain 1 of 2): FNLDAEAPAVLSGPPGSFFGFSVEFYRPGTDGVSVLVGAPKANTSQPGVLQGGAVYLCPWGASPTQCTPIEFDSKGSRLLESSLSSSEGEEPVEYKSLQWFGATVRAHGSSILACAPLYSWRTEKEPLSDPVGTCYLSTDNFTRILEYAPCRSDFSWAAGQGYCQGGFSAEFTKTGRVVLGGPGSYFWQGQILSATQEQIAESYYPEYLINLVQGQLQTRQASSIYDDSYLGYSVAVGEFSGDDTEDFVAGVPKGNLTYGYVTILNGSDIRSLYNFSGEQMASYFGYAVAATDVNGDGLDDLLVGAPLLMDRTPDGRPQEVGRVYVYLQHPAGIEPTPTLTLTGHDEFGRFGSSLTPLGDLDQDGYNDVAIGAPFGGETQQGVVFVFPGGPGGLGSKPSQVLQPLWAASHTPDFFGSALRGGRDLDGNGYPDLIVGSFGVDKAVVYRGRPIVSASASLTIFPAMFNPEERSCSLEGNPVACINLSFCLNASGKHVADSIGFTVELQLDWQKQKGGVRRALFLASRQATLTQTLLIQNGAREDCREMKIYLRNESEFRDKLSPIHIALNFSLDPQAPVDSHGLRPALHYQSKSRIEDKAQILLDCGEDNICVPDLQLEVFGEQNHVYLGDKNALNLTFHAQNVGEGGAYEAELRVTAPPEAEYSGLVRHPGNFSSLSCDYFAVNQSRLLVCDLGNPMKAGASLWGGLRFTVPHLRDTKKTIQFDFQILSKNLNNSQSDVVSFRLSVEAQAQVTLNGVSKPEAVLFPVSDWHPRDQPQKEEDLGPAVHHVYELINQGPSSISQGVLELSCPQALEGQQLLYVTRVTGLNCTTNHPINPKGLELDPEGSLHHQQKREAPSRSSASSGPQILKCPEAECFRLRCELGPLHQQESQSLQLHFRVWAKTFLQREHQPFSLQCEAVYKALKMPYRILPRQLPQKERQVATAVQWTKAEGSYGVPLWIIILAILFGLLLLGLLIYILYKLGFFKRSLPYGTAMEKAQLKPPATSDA
# T2 sequence (P05556 21-798, chain 2 of 2): as the sequence (P05556 21-798, chain 2 of 2) above
row,Binder,IC50 ng/mL (adhesion of K562 cells to GST-Fibronectin type III domains 9-10) [ng/mL]
1,B5,16.7
2,B6,60.2
3,B2,49.8
4,B7,43.2

# Biological target: T2, human α5β1 integrin
# Assay: cell-based or functional assay
# Remark: another data set of the same source
row,Binder,"IC50 (read off the curve), adhesion of K562 cells to GST-fibronectin repeats 8-10 [µg/mL]"
1,B8,~0.2
2,B9,~0.2
3,B7,~0.2

# Biological target: T2, human α5β1 integrin
# Assay: FACS titration on K562 cells expressing α5β1, 1 mM MgCl2 and 1 mM CaCl2, 4 °C, nonlinear 4-parameter fit; 95% CI ±61.4 pM
# Method: To assess the affinity of the antibodies for α5β1, a FACS based KD analysis was employed. […] K562 cells expressing α5β1 were resuspended in filtered HBS buffer containing 1 mM MgCl₂ and 1 mM CaCl₂ at a concentration of approximately 2.5-6 million cells/mL. The cells were kept on ice. Serially diluted (2×) mAbs across 11 wells in a 96-well plate. All mAbs were diluted in HBS described above. Additional HBS and cells were added to each well so that the final volume was 300 μL/well and each well contained approximately 140,000-150,000 cells. The final molecular concentration range for each mAb was 2H12: 7.5 nM-[…]. Cells were incubated on a plate shaker for 5 hours at 4° C. and then were spun/washed 3× at 4° C. with HBS. […] The Mean Fluorescence (F) of 7000 “events” was determined using FACS Canto II HTS flow cytometry instrumentation. To calculate affinity, data was fitted nonlinearly to a plot of the Mean Fluorescence as a function of molecular mAb concentration with Scientist 3.0 software using the equation:
# In this equation, F=mean fluorescence, LT=total molecular mAb concentration, P′=proportionality constant that relates arbitrary fluorescence units to bound mAb, M=cellular concentration in molarity, n=number of receptors per cell, B=background signal, and KD=equilibrium dissociation constant. […]
row,Binder,Kd [pM]
1,B7,162

# Biological target: T3, Macaque α5β1 (Macaque)
# T3 construct: whole, on cells; On macaque T-cells (from frozen PBMCs); also called monkey α5β1; monkey integrin
# Assay: FACS on macaque T-cells; Goat anti Human IgG Fc Cy5 alone 3
# Method: To determine whether the antibodies cross reacted to monkey integrin, binding to purified Macaque T-cells was assessed. Macaque PBMCs were previously purified from whole blood, and stored frozen. Macaque PBMCs were suspended in adhesion buffer with HBSS 1% BSA and 1 mM Mn2+ (“FACS buffer”), at a concentration of 4.8×10⁵ live cells per ml. 12.5 uL of the primary antibody was added to 37.5 ul of cells, and incubated at 4° C. for 1 hour. Positive and negative controls were included as indicated. 100 uL of FACs buffer is added to dilute out primary antibody, the cells washed and resuspended in the appropriate secondary at 2 ug/mL (50 uL) with 10 ug/mL 7AAD, and stained on ice for 7 minutes. 100 uL of FACs buffer was added and cells were washed twice in FACS buffer, finally the supernatant removed and the cells were resuspended in 100 uL of buffer.
# Samples were read on HTS FACS machine and analyzed using Cell Quest Pro software. The data shown in Table 7 confirm that the antibodies cross react with monkey α5β1.
row,Binder,Geo Mean on Macaque T-cells IgG detection
1,B4,9
2,B1,13
3,B2,10
4,B3,11

# Biological target: T4, β1 chain (integrin β1) (human, UniProt P05556 21-798)
# T4 construct: whole, on cells; also called b1; beta1
# Assay: FACS on HT29 cells (no α5 chain, β1 chain present)
# Method: (§1) To confirm the antibodies bind to the α5 chain or to the α5β1 heterodimer, binding to Human colon adenocarcinoma grade II cells (HT29 cells) was assessed by FACS. […] HT-29 cells were suspended in HBSS with 1% BSA and 1 mM final MnCL₂ at a concentration of 6×10⁵ cells/ml. 12.5 uL of the primary antibody was added to 37.5 ul of cells and the plate incubated on ice for 60 minutes. A range of negative controls were included as described previously (indicated as below). In addition as a positive control antibodies to αvβ6 (Mab2077, Chemicon), α5β1 (Mab1909, Chemicon) and αv (L230, Chemicon) were included. 100 uL of HBSS buffer was added to dilute primary antibody, the cells pelleted by centrifuging at 1500 rpm for 3 minutes and resuspended in 50 ul Goat anti-human IgG Fc Cy5 or Goat anti Mouse IgG Fc Cy5 secondary at 2 ug/mL. They were then incubated on ice for a further 7 minutes, and 100 uL of HBSS buffer was added to dilute secondary antibody. Finally cells were pelleted by centrifuging at 1500 rpm for 3 minutes, HBSS Buffer/secondary supernatant removed, washed twice in 100 ul of FACS buffer was added and the cells were resuspended and then read on a FACS Calibur HTS. Samples were analyzed using Cell Quest Pro software. The data is represented in Table 6 and confirm that the antibodies are selective for α5β1.
# T4 sequence (P05556 21-798): as the sequence (P05556 21-798, chain 2 of 2) above
row,Binder,binding result
1,B4,no binding
2,B1,no binding
3,B6,no binding
4,B2,no binding
5,B3,no binding

# Biological target: T2, human α5β1 integrin
# Assay: cell-based or functional assay
# Remark: another data set of the same source
Binder,"% Inhibition of cell adhesion, n = 1 (K562 on full length FN, supernatant 1 in 4) [%]","% Inhibition of cell adhesion, n = 2 (K562 on full length FN, supernatant 1 in 4) [%]","% Inhibition of cell adhesion, n = 3 (K562 on GST-FNIII(9-10), no pre-incubation, supernatant 1 in 4) [%]","% Inhibition of cell adhesion, n = 4 (K562 on GST-FNIII(9-10), supernatant 1 in 10) [%]","% Inhibition of cell adhesion, n = 5 (K562 on GST-FNIII(9-10), supernatant 1 in 10) [%]"
B4,93,102,100,98,77
B1,103,100,97,93,91
B6,96,99,102,100,81
B2,98,100,91,93,84
B3,100,102,97,82,78
B7,89,100,96,92,89

# Biological target: T4, β1 chain (integrin β1)
# Assay: FACS on HT29 cells (α5 null, β1 present); cells alone 2.07, human secondary 2.8
# Method: as §1
row,Binder,Binding Geomean
1,B4,2.75
2,B1,3.61
3,B6,3.06
4,B2,3.17
5,B3,3.03
6,B7,2.96
